{
  "source": "paper doi:10.1101/2024.03.04.583282",
  "about": "(bioRxiv, 2024)",
  "data": [
    {"target": "the molecule itself", "experiment": "crystal structure", "values": [
      {"protein": "full-length NATA2 (enzyme, Arabidopsis thaliana, UniProt Q9ZV06 1-236, looked up) MAAAAPPPPPTAAPEPNMVAPLISPIGHPMFSRIRLATPSDVPFIHKLIHQMAVFERLTHLFSATESGLASTLFTSRPFQSFTVFLLEVSRSPFPATITSSPSPDFTPFFKTHNLDLPIDDPESYNFSPDMLNDVVVAGFVLFFPNYSSFLSKPGFYIEDIFVREPYRRKGFGSMLLTAVAKQAVKMGYGRVEWVVLDWNVNAIKFYEQMGAQILQEWRVCRLTGDALEAFDQVNI", "stoichiometry N": 2},
      {"protein": "N-terminally truncated NATA1 (19-228, NATA1Δ) (enzyme, Arabidopsis thaliana, UniProt Q9ZV05 19-228, looked up) TGHRMFSRIRLATPTDVPFIHKLIHQMAVFERLTHLFVATESGLASTLFNSRPFQAVTVFLLEISPSPFPTTHDASSPDFTPFLETHKVDLPIEDPDREKFLPDKLNDVVVAGFVLFFPNYPSFLAKQGFYIEDIFMREPYRRKGFGKLLLTAVAKQAVKLGVGRVEWIVIDWNVNAINFYEQMGAQVFKEWRLCRLTGDALQAIDKLNI", "stoichiometry N": 2},
      {"protein": "N-terminally truncated NATA2 (30-236, NATA2Δ) (enzyme, Arabidopsis thaliana, UniProt Q9ZV06 30-236, looked up) MFSRIRLATPSDVPFIHKLIHQMAVFERLTHLFSATESGLASTLFTSRPFQSFTVFLLEVSRSPFPATITSSPSPDFTPFFKTHNLDLPIDDPESYNFSPDMLNDVVVAGFVLFFPNYSSFLSKPGFYIEDIFVREPYRRKGFGSMLLTAVAKQAVKMGYGRVEWVVLDWNVNAIKFYEQMGAQILQEWRVCRLTGDALEAFDQVNI", "stoichiometry N": 2}
    ]}
  ]
}
